The RNAGym collection of RNA variant scans (doi:10.1073/pnas.2313332121)
Variants at the floor of the assay were thinned out.

B1: TPR 5TU (parent)
chain: GGAUCUUCUCGAUCUAACAAAAAAGACAAAUCUGCCACAAAGCUUGAGAGCAUCUUCGGAUGCAGAGGCGGCAGCCUUCGGUGGCGCGAUAGCGCCAACGUUCUCAACUAUGACACGCAAAACGCGUGCUCCGUUGAAUGGAGUUUAUCAUG

Variants of: B1
Assay: polymerase ribozyme fitness, log enrichment relative to wild type (log ratio); higher = more active; in vitro selection for triplet polymerase activity
In short: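 A single round of triplicate in vitro selection, including frozen incubation at −7 °C, was applied to PCR-built, transcribed mutant libraries of each subunit of a heterodimeric triplet polymerase ribozyme. Illumina sequencing of input and output libraries retained genotypes with ≥10 input reads and ≥1 read per output. Fitness is the base-2 logarithm of genotype enrichment divided by wild-type enrichment, from inverse-variance-weighted replicate averages.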

Going from A3C G50U to A3C U4G G58C C93U C149U, the “polymerase ribozyme fitness (log ratio)” value falls from -1.07 to -3.55.

Going from A3G A19U U55C G84A to A3C G46C A49G G92A U104G A113U G124A A142U, the “polymerase ribozyme fitness (log ratio)” value falls from -0.956 to ≤ -4.2.

A3C A49C C96A and A3G A52U C54U U77G A121G A122G A137G cannot be ordered by “polymerase ribozyme fitness (log ratio)” value: ≤ -4.2 for the first, ≤ -4.2 for the second.

Going from A3C U56G C57G C116G to A3C U44G U56A G84C, the “polymerase ribozyme fitness (log ratio)” value falls from -2.89 to ≤ -4.2.

A3C C10G G11U A47U G48A G58C U82G G83A A137U and A3C U6G G46C C75A C79A G86A C103G G126U cannot be ordered by “polymerase ribozyme fitness (log ratio)” value: ≤ -4.2 for the first, ≤ -4.2 for the second.

First: A3C C32U G59A
Second: A3C C18U A49U G62C A66C G67U C96A C99G U134C U145C A147C U151G
The “polymerase ribozyme fitness (log ratio)” value of the first is higher: -3.67 for the first, ≤ -4.2 for the second.

Compared with A3C U4A A121G G141A A142C, A3G A49C C51U G59C C95U C131G is lower in “polymerase ribozyme fitness (log ratio)” value: -4.03 for the first, ≤ -4.2 for the second.

Going from A3C A12G G25C A52C C93U C116A to A3C A97U U135G G140C, the “polymerase ribozyme fitness (log ratio)” value falls from -3.91 to ≤ -4.2.

A3C A16G C99G U102G A106U and A3C C8U U61G G71C G80C C93A C125G U127C U145C G152U cannot be ordered by “polymerase ribozyme fitness (log ratio)” value: ≤ -4.2 for the first, ≤ -4.2 for the second.

First: A3C C14G A39C G81U C96U C105U A121U U134C U135C U148C
Second: A3G A17U A60U
The “polymerase ribozyme fitness (log ratio)” value of the first is lower: ≤ -4.2 for the first, -1.21 for the second.

A3C C8G C76U C87A A106U and A3C G70C C87G C96G A107G U146G cannot be ordered by “polymerase ribozyme fitness (log ratio)” value: ≤ -4.2 for the first, ≤ -4.2 for the second.

A3C G58A C87U and A3C C63G C118U are within 0.2 log units of each other in “polymerase ribozyme fitness (log ratio)” value: -0.495 for the first, -0.545 for the second.

First: A3C A23U U44A U45C C95U C105G A106C C123U A137G
Second: A3C G86A C125U
The “polymerase ribozyme fitness (log ratio)” value of the first is lower: ≤ -4.2 for the first, -2.79 for the second.

A3C C35U C75A C129G and A3C U13G A23U C87U A91U C96U cannot be ordered by “polymerase ribozyme fitness (log ratio)” value: ≤ -4.2 for the first, ≤ -4.2 for the second.

A3G A12C G62U G70C C79G G81A G84A A147C and A3C C10G A49C C54U A60U A91C G100A G136U U139C cannot be ordered by “polymerase ribozyme fitness (log ratio)” value: ≤ -4.2 for the first, ≤ -4.2 for the second.

First: A3C C10G C57A G83A
Second: A3G A73U A121U
The “polymerase ribozyme fitness (log ratio)” value of the first is lower: -3.78 for the first, -0.51 for the second.

A3C U6A C35A C95U U102C C103G G143U and A3G A29G U82A cannot be ordered by “polymerase ribozyme fitness (log ratio)” value: ≤ -4.2 for the first, ≤ -4.2 for the second.

A3C G58C C95G C129A A142C and A3G A20C A29U A41G C54U C87U C95U U135G cannot be ordered by “polymerase ribozyme fitness (log ratio)” value: ≤ -4.2 for the first, ≤ -4.2 for the second.

A3C A16U C54A C87U U104G G141C and A3C U7G C87U C93G A98G G100U A120C U148A U151G cannot be ordered by “polymerase ribozyme fitness (log ratio)” value: ≤ -4.2 for the first, ≤ -4.2 for the second.

First: A3C A24G A73U C93A
Second: A3G A39U G59C G83U
The “polymerase ribozyme fitness (log ratio)” value of the first is lower: ≤ -4.2 for the first, -3.56 for the second.

Going from G1U to A3C U7G C14U A52G, the “polymerase ribozyme fitness (log ratio)” value falls from 0.22 to -3.28.

First: A3C C10G A29U U33G C38U C63U
Second: A3C A16G
The “polymerase ribozyme fitness (log ratio)” value of the first is lower: ≤ -4.2 for the first, -1.12 for the second.

A3C C18G U56A C57A C93G U146G and A3G A29G A39G G86U C99G cannot be ordered by “polymerase ribozyme fitness (log ratio)” value: ≤ -4.2 for the first, ≤ -4.2 for the second.

A3C C14A A26G G50C A91G G117A C125U G140A G143C and A3G A16G A24C A49G G80C cannot be ordered by “polymerase ribozyme fitness (log ratio)” value: ≤ -4.2 for the first, ≤ -4.2 for the second.

Going from A3C U56G C93U C114G U134A U148C to A3G A147U, the “polymerase ribozyme fitness (log ratio)” value rises from ≤ -4.2 to 1.09.

First: A3G A19C G92A A98G
Second: A3C U13G G62A A66C U145A
The “polymerase ribozyme fitness (log ratio)” value of the first is higher: -3.18 for the first, ≤ -4.2 for the second.

Compared with A3C C93A A98U, A3C A16U C93G C118U U130G is lower in “polymerase ribozyme fitness (log ratio)” value: -1.79 for the first, ≤ -4.2 for the second.

A3C C14U A16G G59A C87A and A3G C8A U44A A47C U56A G84C C87G cannot be ordered by “polymerase ribozyme fitness (log ratio)” value: ≤ -4.2 for the first, ≤ -4.2 for the second.

First: A3C U4A U6C U15C A17G C38U C54U C72U G86U U127G
Second: A3G A16U U53A C75U G92U
The “polymerase ribozyme fitness (log ratio)” value of the first is lower: ≤ -4.2 for the first, -3.54 for the second.

Going from A3C U6A to A3C A17U A26U C54A C75U C93U C103G G143C, the “polymerase ribozyme fitness (log ratio)” value falls from -0.461 to ≤ -4.2.

Going from A3C A52C U55A C57A G81A G94C to A3C A16C G48A C96G, the “polymerase ribozyme fitness (log ratio)” value rises from -4.03 to -3.42.

First: A3C C36U G83A
Second: A3C U101G C105U A138C
The “polymerase ribozyme fitness (log ratio)” value of the first is higher: -3.09 for the first, -4.17 for the second.

Going from A3C A28U U77A C93U C129A U148G to A3C U4A, the “polymerase ribozyme fitness (log ratio)” value rises from ≤ -4.2 to 0.257.

Compared with A3C C87G, A3C C85U C96U is higher in “polymerase ribozyme fitness (log ratio)” value: -3.29 for the first, -0.556 for the second.

A3G A23C C75A G88A C99G C108U G143C and A3C A20C C38U A41C U53A G71A C93A G94U G126C cannot be ordered by “polymerase ribozyme fitness (log ratio)” value: ≤ -4.2 for the first, ≤ -4.2 for the second.

A3C C85A U130A C132G and A3G A23U C85A A106U G133U G143U cannot be ordered by “polymerase ribozyme fitness (log ratio)” value: ≤ -4.2 for the first, ≤ -4.2 for the second.

Compared with A3C C14G A52C C93U G141U, A3C U31G C51U A60C A122C G140A is lower in “polymerase ribozyme fitness (log ratio)” value: -4.16 for the first, ≤ -4.2 for the second.

Compared with A3C U90A, A3C C43U A89U G92A C125G is lower in “polymerase ribozyme fitness (log ratio)” value: -4.17 for the first, ≤ -4.2 for the second.

First: A3C G58C C63U C95G
Second: A3C A28G A37U A52U G83U
The “polymerase ribozyme fitness (log ratio)” value of the first is higher: -1.68 for the first, ≤ -4.2 for the second.

A3C A21C C35A C85U C125U and A3G A17U C85A A106G A107U C118G U134A A142G C149U cannot be ordered by “polymerase ribozyme fitness (log ratio)” value: ≤ -4.2 for the first, ≤ -4.2 for the second.

Compared with A3G A41U A47G U101G G136U, A3C A22U C85G is higher in “polymerase ribozyme fitness (log ratio)” value: ≤ -4.2 for the first, -2.18 for the second.

Going from A3G A89G C93U A137C A138U G140A to A3G A60C C93U U145G, the “polymerase ribozyme fitness (log ratio)” value rises from ≤ -4.2 to -2.53.
